Patent US20180016346A1 (Kyowa Kirin, published 2018)

B1: hTRAILR2-hPSMA bispecific antibody E11-CH1-PI134VH antibody (bispecific antibody, IgG4)
heavy: not shown
VL: EIVLTQSPATLSLSPGERATLSCRASQSVSSFLAWYQQKPGQAPRLLIYDASNRATGIPARFSGSGSGTDFTLTISSLEPEDFAVYYCQQRSNWPLTFGPGTKVDIKR
notes: domain: constant region; All four light chains carry E11 VL; also called E11-CH1-PI134 antibody
B2: hTRAILR2-hPSMA bispecific antibody E11-GL-PI134VH antibody (bispecific antibody, IgG4)
heavy: not shown
VL: EIVLTQSPATLSLSPGERATLSCRASQSVSSFLAWYQQKPGQAPRLLIYDASNRATGIPARFSGSGSGTDFTLTISSLEPEDFAVYYCQQRSNWPLTFGPGTKVDIKR
notes: domain: constant region; All four light chains carry E11 VL; also called E11-GL-PI1134VH
B3: anti-hPSMA monoclonal antibody 2A10 antibody (antibody, human IgG1, V domains shown)
VH: EVQLVQSGAEVKKPGESLKISCKGSGYSFTSNWIGWVRQMPGKGLEWMGIIYPGDSDTRYSPSFQGQVTISADKSISTAYLQWSSLKASDTAMYYCARQTGFLWSSDLWGRGTLVTVSS
VL: IQLTQSPSSLSASVGDRVTITCRASQDISSALAWYQQKPGKAPKLLIYDASSLESGVPSRFSGYGSGTDFTLTINSLQPEDFATYYCQQFNSYPLTFGGGTKVEIK
notes: Expressed from vector N5KG1 (N5KG1_2A10), the human IgG1 type vector
B4: PI134 phage clone (scFv displayed on M13 phage) (scFv, V domains shown)
VH: QVQLVQSGAEVKKPGASVKVSCKASGYTFTTYDINWVRQATGQGLEWMGWMNPNNGYTGYAQKFQGRVTMTRNTSISTAYMELSSLRSEDTAVYYCARTNWVYWYFDLWGRGTLVTVSS
VL: EIVLTQSPATLSLSPGERATLSCRASQSVSSFLAWYQQKPGQAPRLLIYDASNRATGIPARFSGSGSGTDFTLTISSLEPEDFAVYYCQQRSNWPLTFGPGTKVDIKR
notes: Tested as an scFv on M13 phage (phagemid pCANTAB 5E)
B5: PI105 phage clone (scFv displayed on M13 phage) (scFv, V domains shown)
VH: EVQLVQSGAEVKKPGASVKVSCKASGYTFTTYDINWVRQATGQGLEWLGWMNPNNGYTGYAQKFQGRVTMTRNTSIGTAYMELNSLRSEDTAVYYCARTNWVYWYFDLWGRGTLVTVSS
VL: EIVLTQSPATLSLSPGERATLSCRASQSVSSFLAWYQQKPGQAPRLLIYDASNRATGIPARFSGSGSGTDFTLTISSLEPEDFAVYYCQQRSNWPLTFGPGTKVDIK
notes: Tested as an scFv on M13 phage (phagemid pCANTAB 5E); not shown: scFv linker, domain order, tag and M13 coat-protein fusion of phagemid pCANTAB 5E; copies: 1 + 1
B6: PN170 phage clone (scFv displayed on M13 phage) (scFv, V domains shown)
VH: EVQLVQSGAEVKKPGASVKVSCKASGYTLTSYDINWVRQATGQGLEWMGWMNPNSGYTGYAQKFQDRVTMTRNTAINTAYMELSSLRSEDTAVYYCAREAGYDGIWYFDLWGRGTLVTVSS
VL: EIVLTQSPATLSLSPGERATLSCRASQSVSSFLAWYQQKPGQAPRLLIYDASNRATGIPARFSGSGSGTDFTLTISSLEPEDFAVYYCQQRSNWPLTFGPGTKVDIKR
notes: as for B4
B7: PI143 phage clone (scFv displayed on M13 phage) (scFv, V domains shown)
VH: QVQLVQSGAEVKKPGASVKVSCKASGYTFTTYDINWVRQATGQGLEWMGWMNPNNGYTGYAQKFQGRVTMTRNTSISTAYMELSSLRSEDTAVYYCARTNWVYWYFDLWGRGTTVTVSS
VL: EIVLTQSPATLSLSPGERATLSCRASQSVSSFLAWYQQKPGQAPRLLIYDASNRATGIPARFSGSGSGTDFTLTISSLEPEDFAVYYCQQRSNWPLTFGPGTKVDIKR
notes: Tested as an scFv on M13 phage (phagemid pCANTAB 5E); also called P1143
B8: PN7 phage clone (scFv displayed on M13 phage) (scFv, V domains shown)
VH: EVQLVQSGAEVKKPGASVKVSCKASGYTFTTYDINWVRQATGQGLEWMGWMNPNSGYTGYAQKFQGRVTMTRDTSISTAYMELSSLRSEDTAVYYCARTNWESWYFDLWGRGTLVTVSS
VL: EIVLTQSPATLSLSPGERATLSCRASQSVSSFLAWYQQKPGQAPRLLIYDASNRATGIPARFSGSGSGTDFTLTISSLEPEDFAVYYCQQRSNWPLTFGPGTKVDIKR
notes: as for B4
B9: PI127 phage clone (scFv displayed on M13 phage) (scFv, V domains shown)
VH: QVQLVQSGAEVKKPGASVKVSCKASGYTFTTYDINWVRQATGQGLEWLGWMNPNNGYTGYAQKFQGRVTMTRNTSIGTAYMELNSLRSEDTAVYYCARTNWVYWYFDLWGRGTLVTVSS
VL: EIVLTQSPATLSLSPGERATLSCRASQSVSSFLAWYQQKPGQAPRLLIYDASNRATGIPARFSGSGSGTDFTLTISSLEPEDFAVYYCQQRSNWPLTFGPGTKVDIKR
notes: as for B4
B10: PI108 phage clone (scFv displayed on M13 phage) (scFv, V domains shown)
VH: QVQLVQSGAEVKKPGASVKVSCKASGYTFTTYDINWVRQATGQGLEWMGWMNPNNGYTGYAQKFQGRVTMTRNTSISTAYMELTSLRSEDTAVYYCARTNWVYWYFDLWGRGTLVTVSS
VL: EIVLTQSPATLSLSPGERATLSCRASQSVSSFLAWYQQKPGQAPRLLIYDASNRATGIPARFSGSGSGTDFTLTISSLEPEDFAVYYCQQRSNWPLTFGPGTKVDIKR
notes: as for B4
B11: PI118 phage clone (scFv displayed on M13 phage) (scFv, V domains shown)
VH: QVQLVQSGAEVKKPGASVKVSCKASGYNLTTYDINWVRQATGQGLEWMGWMNPNSGYTGYAQKFQGRVTMTRNTSIDTAYMELSNLRSEDTAVYYCARTNWVYWYFDLWGRGTLVTVSS
VL: EIVLTQSPATLSLSPGERATLSCRASQSVSSFLAWYQQKPGQAPRLLIYDASNRATGIPARFSGSGSGTDFTLTISSLEPEDFAVYYCQQRSNWPLTFGPGTKVDIKR
notes: as for B4
B12: PI115 phage clone (scFv displayed on M13 phage) (scFv, V domains shown)
VH: EVQLVQSGAEVKKPGASVKVSCKASGYTFTTYDINWVRQATGQGLEWMGWMNPNNGYTGYAQKFQGRVTMTRNTSISTAYMELSSLRSEDTAVYYCARTNWVYWYFDLWGRGTLVTVSS
VL: EIVLTQSPATLSLSPGERATLSCRASQSVSSFLAWYQQKPGQAPRLLIYDASNRATGIPARFSGSGSGTDFTLTISSLEPEDFAVYYCQQRSNWPLTFGPGTKVDIKR
notes: as for B4
B13: PL223 phage clone (scFv displayed on M13 phage) (scFv, V domains shown)
VH: EVQLVQSGAEVKKPGASVKVSCKASGYTFTTYDINWVRQATGQGLEWMGWMNPNNGYTGYAQKFQGRVTMTRNTSISTAYMELSSLRSEDTAVYYCARTNWVYWYFDLWGRGTMVTVSS
VL: EIVLTQSPATLSLSPGERATLSCRASQSVSSFLAWYQQKPGQAPRLLIYDASNRATGIPARFSGSGSGTDFTLTISSLEPEDFAVYYCQQRSNWPLTFGPGTKVDIKR
notes: as for B4
B14: PI101 phage clone (scFv displayed on M13 phage) (scFv, V domains shown)
VH: EVQLVQSGAEVKKPGASVKVSCKASGYNLATYDINWVRQATGQGLEWMGWMNPNSGYTGYAQKFQGRVTMTRDTSINTAYMELSSLRSEDTAVYYCARTNWVYWYFDLWGRGTLVTVSS
VL: EIVLTQSPATLSLSPGERATLSCRASQSVSSFLAWYQQKPGQAPRLLIYDASNRATGIPARFSGSGSGTDFTLTISSLEPEDFAVYYCQQRSNWPLTFGPGTKVDIKR
notes: as for B4
B15: hTRAILR2-hPSMA bispecific antibody E11-CH1-PI115VH antibody (bispecific antibody, IgG4)
heavy: not shown
VL: EIVLTQSPATLSLSPGERATLSCRASQSVSSFLAWYQQKPGQAPRLLIYDASNRATGIPARFSGSGSGTDFTLTISSLEPEDFAVYYCQQRSNWPLTFGPGTKVDIKR
notes: domain: constant region; The heavy chain is E11 VH, an IgG4 CH1 linker and PI115 VH, followed by the constant region of the vector; All four light chains carry E11 VL
B16: hTRAILR2-hPSMA bispecific antibody E11-ML-PI101VH antibody (bispecific antibody, IgM)
heavy: not shown
VL: EIVLTQSPATLSLSPGERATLSCRASQSVSSFLAWYQQKPGQAPRLLIYDASNRATGIPARFSGSGSGTDFTLTISSLEPEDFAVYYCQQRSNWPLTFGPGTKVDIKR
notes: domain: constant region; All four light chains carry E11 VL
B17: hTRAILR2-hPSMA bispecific antibody E11-CH1-PI127VH antibody (bispecific antibody, IgG4)
heavy: not shown
VL: EIVLTQSPATLSLSPGERATLSCRASQSVSSFLAWYQQKPGQAPRLLIYDASNRATGIPARFSGSGSGTDFTLTISSLEPEDFAVYYCQQRSNWPLTFGPGTKVDIKR
notes: domain: constant region; The heavy chain is E11 VH, an IgG4 CH1 linker and PI127 VH, followed by the constant region of the vector; All four light chains carry E11 VL
B18: hTRAILR2-hPSMA bispecific antibody E11-CH1-PI108VH antibody (bispecific antibody, IgG4)
heavy: not shown
VL: EIVLTQSPATLSLSPGERATLSCRASQSVSSFLAWYQQKPGQAPRLLIYDASNRATGIPARFSGSGSGTDFTLTISSLEPEDFAVYYCQQRSNWPLTFGPGTKVDIKR
notes: domain: constant region; The heavy chain is E11 VH, an IgG4 CH1 linker and PI108 VH, followed by the constant region of the vector; All four light chains carry E11 VL
B19: hTRAILR2-hPSMA bispecific antibody E11-CH1-PI143VH antibody (bispecific antibody, IgG4)
heavy: not shown
VL: EIVLTQSPATLSLSPGERATLSCRASQSVSSFLAWYQQKPGQAPRLLIYDASNRATGIPARFSGSGSGTDFTLTISSLEPEDFAVYYCQQRSNWPLTFGPGTKVDIKR
notes: domain: constant region; The heavy chain is E11 VH, an IgG4 CH1 linker and PI143 VH, followed by the constant region of the vector; All four light chains carry E11 VL
B20: hTRAILR2-hPSMA bispecific antibody E11-CH1-PI118VH antibody (bispecific antibody, IgG4)
heavy: not shown
VL: EIVLTQSPATLSLSPGERATLSCRASQSVSSFLAWYQQKPGQAPRLLIYDASNRATGIPARFSGSGSGTDFTLTISSLEPEDFAVYYCQQRSNWPLTFGPGTKVDIKR
notes: domain: constant region; The heavy chain is E11 VH, an IgG4 CH1 linker and PI118 VH, followed by the constant region of the vector; All four light chains carry E11 VL
B21: hTRAILR2-hPSMA bispecific antibody E11-CH1-PL223VH antibody (bispecific antibody, IgG4)
heavy: not shown
VL: EIVLTQSPATLSLSPGERATLSCRASQSVSSFLAWYQQKPGQAPRLLIYDASNRATGIPARFSGSGSGTDFTLTISSLEPEDFAVYYCQQRSNWPLTFGPGTKVDIKR
notes: domain: constant region; The heavy chain is E11 VH, an IgG4 CH1 linker and PL223 VH, followed by the constant region of the vector; All four light chains carry E11 VL; also called E11-CHI-PL223VH

What follows are binders tested against T1, human prostate specific membrane antigen (hPSMA), membrane form on cells (human, UniProt Q04609 1-750) (assay: flow cytometry on hPSMA/L929 cells (FIG. 2)).
T1 construct: endogenous on LNCaP clone FGC cells; also called membrane hPSMA
T1 sequence (Q04609 whole entry): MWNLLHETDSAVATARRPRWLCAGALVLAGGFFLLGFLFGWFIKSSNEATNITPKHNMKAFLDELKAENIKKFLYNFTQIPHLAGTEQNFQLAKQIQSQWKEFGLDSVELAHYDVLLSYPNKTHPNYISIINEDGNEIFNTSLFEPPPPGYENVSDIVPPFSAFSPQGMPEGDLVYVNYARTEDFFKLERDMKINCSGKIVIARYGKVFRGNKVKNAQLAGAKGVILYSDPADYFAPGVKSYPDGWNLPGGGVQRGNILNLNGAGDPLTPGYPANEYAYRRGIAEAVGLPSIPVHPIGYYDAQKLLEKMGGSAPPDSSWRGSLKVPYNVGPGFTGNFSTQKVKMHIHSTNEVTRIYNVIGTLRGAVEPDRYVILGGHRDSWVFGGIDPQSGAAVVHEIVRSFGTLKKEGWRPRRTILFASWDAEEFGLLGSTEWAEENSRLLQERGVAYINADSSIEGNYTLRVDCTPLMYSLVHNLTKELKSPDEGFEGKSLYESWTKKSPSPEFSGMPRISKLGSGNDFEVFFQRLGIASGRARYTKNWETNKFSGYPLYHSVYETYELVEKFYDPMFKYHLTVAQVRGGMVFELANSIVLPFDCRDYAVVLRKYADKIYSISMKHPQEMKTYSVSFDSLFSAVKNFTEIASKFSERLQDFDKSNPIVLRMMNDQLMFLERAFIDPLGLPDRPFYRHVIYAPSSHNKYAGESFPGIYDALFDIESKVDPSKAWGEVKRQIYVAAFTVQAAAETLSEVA
Method: The cells were suspended in a staining buffer [PBS containing 0.1% NaN₃ and 1% FBS] at a concentration of 1×10⁶ cells/mL, and dispensed in a round-bottom 96-well plate (manufactured by Becton Dickinson) by 100 μL/well. After the centrifugation (2000 rpm, 4° C., 2 minutes), each antibody obtained in Example 7 was added to the pellet obtained by removing the supernatant, and suspended, and then left stand at ice temperature for 30 minutes.
After the further centrifugation (2000 rpm, 4° C., 2 minutes), the pellet obtained by removing the supernatant was washed twice with 200 μL/well of the staining buffer. Thereafter, 1 μg/mL of RPE fluorescently labeled mouse anti-human antibody (hinge region) clone 4E3 antibody (manufactured by Southern Bioblot) was added thereto by 50 μL/well and incubated at ice temperature for 30 minutes. After washing twice with the staining buffer, the cells were suspended in 200 μL/well of the staining buffer, and the fluorescence intensity of each cell was measured with the flow cytometer FACSCANTO II (manufactured by Becton Dickinson). The obtained results are illustrated in FIG. 2 and FIG. 3.
hPSMA/L929 cells were stained with anti-TRAILR2 monoclonal antibody E11 antibody, anti-hPSMA monoclonal antibody PI134 antibody, or hTRAILR2-hPSMA bispecific antibody E11-CH1-PI101VH antibody, E11-CH1-PN7VH antibody or E11-CH1-PN170VH antibody. The obtained results are illustrated in FIG. 2.
B1: binds.
B2: binds.
B3: binds.

What follows are binders tested against T2, FLAG-hPSMA, extracellular domain protein of hPSMA with a FLAG-tag at the N-terminus (human, UniProt Q04609 44-750) (assay: phage ELISA, scFv phage clone on immobilized FLAG-PSMA).
T2 construct: also called FLAG-PSMA; soluble hPSMA antigen
T2 sequence (Q04609 other isoform, or with tags, fused parts or gaps): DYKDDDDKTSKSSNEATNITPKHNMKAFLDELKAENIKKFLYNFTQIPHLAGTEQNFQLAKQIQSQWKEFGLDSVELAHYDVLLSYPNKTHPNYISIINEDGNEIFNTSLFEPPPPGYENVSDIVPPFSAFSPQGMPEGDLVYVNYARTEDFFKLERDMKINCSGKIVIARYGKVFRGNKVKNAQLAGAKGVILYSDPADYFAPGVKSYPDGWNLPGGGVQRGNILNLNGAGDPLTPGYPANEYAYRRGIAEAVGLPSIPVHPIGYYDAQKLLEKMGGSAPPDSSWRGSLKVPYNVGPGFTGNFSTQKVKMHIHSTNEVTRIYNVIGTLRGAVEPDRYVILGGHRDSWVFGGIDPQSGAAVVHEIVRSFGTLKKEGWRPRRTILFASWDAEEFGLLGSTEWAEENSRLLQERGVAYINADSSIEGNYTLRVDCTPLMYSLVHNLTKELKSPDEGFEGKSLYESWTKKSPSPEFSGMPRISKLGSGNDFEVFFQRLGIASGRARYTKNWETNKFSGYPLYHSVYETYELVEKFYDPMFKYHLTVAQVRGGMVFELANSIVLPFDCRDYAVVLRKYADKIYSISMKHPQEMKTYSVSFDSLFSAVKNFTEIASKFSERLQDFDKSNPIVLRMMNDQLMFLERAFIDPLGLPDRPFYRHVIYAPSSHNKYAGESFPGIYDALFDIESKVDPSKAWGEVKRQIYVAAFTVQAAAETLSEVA
Method: The concentrated phage was monocloned and clones having the affinity to FLAG-PSMA were selected by ELISA. In ELISA, MAXISORP STARTUBE (manufactured by NUNC) in which the FLAG-PSMA of Example 5 described below was immobilized thereon, and a site not bound by FLAG-PSMA was blocked by using SuperBlock Blockig Buffer (manufactured by Thermo Fisher Scientific Inc.) was used.
Each phage clone was added to each well and allowed to react at room temperature for 30 minutes, and then each well was washed three times with PBS containing 0.1% Tween 20 (hereinafter referred to as PBS-T). Subsequently, a solution in which horseradish peroxidase-labeled anti-M13 antibody (manufactured by GE Healthcare) was diluted 5000 times with PBS-T containing 10% Block Ace (manufactured by Dainippon Pharma Co., Ltd.) was added to each well by 50 μL and incubated at room temperature for 30 minutes.
B4: binds.
B5: binds.
B6: binds.
B7: binds.
B8: binds.
B9: binds.
B10: binds.
B11: binds.
B12: binds.
B13: binds.
B14: binds.

The binders below were run against T1, human prostate specific membrane … (assay: flow cytometry on hPSMA/PC3 cells against PC3 cells (no data disclosed)).
B15: binds.
B16: binds.
B17: binds.
B18: binds.
B19: binds.
B20: binds.
B21: binds.
